In patent US20260167721A1 (ABLEXIS, published 2026) one finds Kd, koff and kon data, which are given here for five molecules.

Assay [1] addresses T1, recombinant CD3 proteins (UniProt P07766 23-126).
T1 construct: elsewhere it uses human CD3 E/D and E/G heterodimers
Nature of the assay: Octet BLI, recombinant CD3; Full R^2 0.9829.

The target in assay [2] is T1, recombinant CD3 proteins. Briefly: Octet BLI, recombinant CD3; Full R^2 0.8423.
The target of assay [3] is T1, recombinant CD3 proteins. Nature of the assay: Octet BLI, recombinant CD3; Full R^2 0.5677.
In assay [4] the target is T1, recombinant CD3 proteins. Nature of the assay: Octet BLI, recombinant CD3; Full R^2 0.9688.
For assay [5], the target named is T1, recombinant CD3 proteins. Nature of the assay: Octet BLI, recombinant CD3; Full R^2 0.9599.

T1 sequence (P07766 23-126): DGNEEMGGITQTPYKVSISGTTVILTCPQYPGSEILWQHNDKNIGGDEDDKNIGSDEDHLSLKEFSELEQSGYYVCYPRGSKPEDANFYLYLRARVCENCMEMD

B1: CD3 × CD33-BspAb85 (bispecific antibody)
chain 1: EVQLVESGGGLVKPGGSLRLSCAASGFTFSSYSMNWVRQAPGKCLEWVSSISRSSGYIFYADSVKGRFTISRDNAKNSLYLQMNSLRAEDTAVYYCVRERVGAGFDYWGQGTLVTVSSGGGGSGGGGSGGGGSGGGGSNFMLTQPHSVSESPGKTVAISCTRSSGSIASNYVQWYQQRPGSSPTAVIYEDNQRPSGVPDRFSGSIDSSSNSAFLTISGLKTEDEADYYCQSYDSSNRVFGCGTKLTVLDKTHTCPPCPAPEFEGGPSVFLFPPKPKDTLMISRTPEVTCVVVDVSHEDPEVKFNWYVDGVEVHNAKTKPREEQYNSTYRVVSVLTVLHQDWLNGKEYKCKVSNKALPASIEKTISKAKGQPREPQVYTLPPCREEMTKNQVSLWCLVKGFYPSDIAVEWESNGQPENNYKTTPPVLDSDGSFFLYSKLTVDKSRWQQGNVFSCSVMHEALHNHYTQKSLSLSPGK
chain 2: EVQLVQSGAEVKKPGSSVKVSCKASGYTITDSNIHWVRQAPGQSLEWIGYIYPYNGGTDYNQKFKNRATLTVDNPTNTAYMELSSLRSEDTAFYYCVNGNPWLAYWGQGTLVTVSSASTKGPSVFPLAPSSKSTSGGTAALGCLVKDYFPEPVTVSWNSGALTSGVHTFPAVLQSSGLYSLSSVVTVPSSSLGTQTYICNVNHKPSNTKVDKRVEPKSCDKTHTCPPCPAPEFEGGPSVFLFPPKPKDTLMISRTPEVTCVVVDVSHEDPEVKFNWYVDGVEVHNAKTKPREEQYNSTYRVVSVLTVLHQDWLNGKEYKCKVSNKALPASIEKTISKAKGQPREPQVCTLPPSREEMTKNQVSLSCAVKGFYPSDIAVEWESNGQPENNYKTTPPVLDSDGSFFLVSKLTVDKSRWQQGNVFSCSVMHEALHNRFTQKSLSLSPGK
chain 3: DIQLTQSPSTLSASVGDRVTITCRASESLDNYGIRFLTWFQQKPGKAPKLLMYAASNQGSGVPSRFSGSGSGTEFTLTISSLQPDDFATYYCQQTKEVPWSFGQGTKVEVKRTVAAPSVFIFPPSDEQLKSGTASVVCLLNNFYPREAKVQWKVDNALQSGNSQESVTEQDSKDSTYSLSSTLTLSKADYEKHKVYACEVTHQGLSSPVTKSFNRGEC
For B1, in the assay with recombinant CD3 proteins [1], the Kd is 60.8 nM, the koff was found to be 0.0149 s⁻¹ and the kon was determined as 246000 M⁻¹ s⁻¹.

B2: CD3 × CD33-BspAb89 (bispecific antibody)
chain 1: not shown
chain 2: EVQLVQSGAEVKKPGSSVKVSCKASGYTITDSNIHWVRQAPGQSLEWIGYIYPYNGGTDYNQKFKNRATLTVDNPTNTAYMELSSLRSEDTAFYYCVNGNPWLAYWGQGTLVTVSSASTKGPSVFPLAPSSKSTSGGTAALGCLVKDYFPEPVTVSWNSGALTSGVHTFPAVLQSSGLYSLSSVVTVPSSSLGTQTYICNVNHKPSNTKVDKRVEPKSCDKTHTCPPCPAPEFEGGPSVFLFPPKPKDTLMISRTPEVTCVVVDVSHEDPEVKFNWYVDGVEVHNAKTKPREEQYNSTYRVVSVLTVLHQDWLNGKEYKCKVSNKALPASIEKTISKAKGQPREPQVCTLPPSREEMTKNQVSLSCAVKGFYPSDIAVEWESNGQPENNYKTTPPVLDSDGSFFLVSKLTVDKSRWQQGNVFSCSVMHEALHNRFTQKSLSLSPGK
chain 3: DIQLTQSPSTLSASVGDRVTITCRASESLDNYGIRFLTWFQQKPGKAPKLLMYAASNQGSGVPSRFSGSGSGTEFTLTISSLQPDDFATYYCQQTKEVPWSFGQGTKVEVKRTVAAPSVFIFPPSDEQLKSGTASVVCLLNNFYPREAKVQWKVDNALQSGNSQESVTEQDSKDSTYSLSSTLTLSKADYEKHKVYACEVTHQGLSSPVTKSFNRGEC
Turning to B2, in the assay with recombinant CD3 proteins [2], the Kd came to 24.4 nM, the koff was 0.0578 s⁻¹ and the association rate constant (kon) was 2.37e+06 M⁻¹ s⁻¹.

B3: CD3 × CD33-BspAb87 (bispecific antibody)
chain 1: EVQLVESGGGLVKPGGSLRLSCAASGFTVSNYSMNWVRQAPGKCLEWVSSISRSSSYIYYADSVKGRFTISRDNAKNSLFLQMNSLRAEDTAVYYCARERWELLYFDYWGQGTLVTVSSGGGGSGGGGSGGGGSGGGGSQTVVTQEPSFSVSPGGTVTLTCGLSSGSVSTSYYPSWYQQTPGQAPRTLIYSTNTRSSGVPDRFSGSILGNKAALTITGAQADDESDYYCVLYMGSGIWVFGCGTKLTVLDKTHTCPPCPAPEFEGGPSVFLFPPKPKDTLMISRTPEVTCVVVDVSHEDPEVKFNWYVDGVEVHNAKTKPREEQYNSTYRVVSVLTVLHQDWLNGKEYKCKVSNKALPASIEKTISKAKGQPREPQVYTLPPCREEMTKNQVSLWCLVKGFYPSDIAVEWESNGQPENNYKTTPPVLDSDGSFFLYSKLTVDKSRWQQGNVFSCSVMHEALHNHYTQKSLSLSPGK
chain 2: EVQLVQSGAEVKKPGSSVKVSCKASGYTITDSNIHWVRQAPGQSLEWIGYIYPYNGGTDYNQKFKNRATLTVDNPTNTAYMELSSLRSEDTAFYYCVNGNPWLAYWGQGTLVTVSSASTKGPSVFPLAPSSKSTSGGTAALGCLVKDYFPEPVTVSWNSGALTSGVHTFPAVLQSSGLYSLSSVVTVPSSSLGTQTYICNVNHKPSNTKVDKRVEPKSCDKTHTCPPCPAPEFEGGPSVFLFPPKPKDTLMISRTPEVTCVVVDVSHEDPEVKFNWYVDGVEVHNAKTKPREEQYNSTYRVVSVLTVLHQDWLNGKEYKCKVSNKALPASIEKTISKAKGQPREPQVCTLPPSREEMTKNQVSLSCAVKGFYPSDIAVEWESNGQPENNYKTTPPVLDSDGSFFLVSKLTVDKSRWQQGNVFSCSVMHEALHNRFTQKSLSLSPGK
chain 3: DIQLTQSPSTLSASVGDRVTITCRASESLDNYGIRFLTWFQQKPGKAPKLLMYAASNQGSGVPSRFSGSGSGTEFTLTISSLQPDDFATYYCQQTKEVPWSFGQGTKVEVKRTVAAPSVFIFPPSDEQLKSGTASVVCLLNNFYPREAKVQWKVDNALQSGNSQESVTEQDSKDSTYSLSSTLTLSKADYEKHKVYACEVTHQGLSSPVTKSFNRGEC
On to B3, for which, in the assay with recombinant CD3 proteins [3], the Kd is 5.17 nM, the koff turned out to be 0.00307 s⁻¹ and the on-rate (kon) was found to be 594000 M⁻¹ s⁻¹.

B4: CD3 × CD33-BspAb88 (bispecific antibody)
chain 1: QVQLVQSGAEVKKPGASLKVSCKASGYTFTSYYMHWVRQAPGQCLEWMGIINPSNGNTISAQKFQGRVTMTRDTSTSTVYMEMSSLRSEDTAVYYCVRSWGYYVMDVWGQGTTVTVSSGGGGSGGGGSGGGGSGGGGSQTVVTQEPSFSVSPGGTVTLTCGLNSGSVSTSYYPSWYQQTPGQTPRTLIYSTNTRSSGVPDRFSGSILGNKAALTITGAQADDESDYYCVLYMGSGIWVFGCGTKLTVLDKTHTCPPCPAPEFEGGPSVFLFPPKPKDTLMISRTPEVTCVVVDVSHEDPEVKFNWYVDGVEVHNAKTKPREEQYNSTYRVVSVLTVLHQDWLNGKEYKCKVSNKALPASIEKTISKAKGQPREPQVYTLPPCREEMTKNQVSLWCLVKGFYPSDIAVEWESNGQPENNYKTTPPVLDSDGSFFLYSKLTVDKSRWQQGNVFSCSVMHEALHNHYTQKSLSLSPGK
chain 2: EVQLVQSGAEVKKPGSSVKVSCKASGYTITDSNIHWVRQAPGQSLEWIGYIYPYNGGTDYNQKFKNRATLTVDNPTNTAYMELSSLRSEDTAFYYCVNGNPWLAYWGQGTLVTVSSASTKGPSVFPLAPSSKSTSGGTAALGCLVKDYFPEPVTVSWNSGALTSGVHTFPAVLQSSGLYSLSSVVTVPSSSLGTQTYICNVNHKPSNTKVDKRVEPKSCDKTHTCPPCPAPEFEGGPSVFLFPPKPKDTLMISRTPEVTCVVVDVSHEDPEVKFNWYVDGVEVHNAKTKPREEQYNSTYRVVSVLTVLHQDWLNGKEYKCKVSNKALPASIEKTISKAKGQPREPQVCTLPPSREEMTKNQVSLSCAVKGFYPSDIAVEWESNGQPENNYKTTPPVLDSDGSFFLVSKLTVDKSRWQQGNVFSCSVMHEALHNRFTQKSLSLSPGK
chain 3: DIQLTQSPSTLSASVGDRVTITCRASESLDNYGIRFLTWFQQKPGKAPKLLMYAASNQGSGVPSRFSGSGSGTEFTLTISSLQPDDFATYYCQQTKEVPWSFGQGTKVEVKRTVAAPSVFIFPPSDEQLKSGTASVVCLLNNFYPREAKVQWKVDNALQSGNSQESVTEQDSKDSTYSLSSTLTLSKADYEKHKVYACEVTHQGLSSPVTKSFNRGEC
For B4, in the assay with recombinant CD3 proteins [4], the Kd turned out to be 12.6 nM, the koff was found to be 0.000778 s⁻¹ and the kon stood at 61800 M⁻¹ s⁻¹.

B5: CD3 × CD33-BspAb86 (bispecific antibody)
chain 1: EVQLVESGGGLVKPGGSLRLSCAASGFTFSSYSMNWVRQAPGKCLEWVSSISRSGTYIYYADSVKGRFTISRDNAKNSLYLQMNSLRAEDTAVYYCARERWELLYFDYWGQGTLVTVSSGGGGSGGGGSGGGGSGGGGSQTVVTQEPSLTVSPGGTVTLTCASSTGAVTSGYYPNWFQQKPGQAPRALIYSTSNKHSWTPARFSGSLLGGKAALTLSGVQPEDEAEYYCLLYYGGAYVFGCGTKVTVLDKTHTCPPCPAPEFEGGPSVFLFPPKPKDTLMISRTPEVTCVVVDVSHEDPEVKFNWYVDGVEVHNAKTKPREEQYNSTYRVVSVLTVLHQDWLNGKEYKCKVSNKALPASIEKTISKAKGQPREPQVYTLPPCREEMTKNQVSLWCLVKGFYPSDIAVEWESNGQPENNYKTTPPVLDSDGSFFLYSKLTVDKSRWQQGNVFSCSVMHEALHNHYTQKSLSLSPGK
chain 2: EVQLVQSGAEVKKPGSSVKVSCKASGYTITDSNIHWVRQAPGQSLEWIGYIYPYNGGTDYNQKFKNRATLTVDNPTNTAYMELSSLRSEDTAFYYCVNGNPWLAYWGQGTLVTVSSASTKGPSVFPLAPSSKSTSGGTAALGCLVKDYFPEPVTVSWNSGALTSGVHTFPAVLQSSGLYSLSSVVTVPSSSLGTQTYICNVNHKPSNTKVDKRVEPKSCDKTHTCPPCPAPEFEGGPSVFLFPPKPKDTLMISRTPEVTCVVVDVSHEDPEVKFNWYVDGVEVHNAKTKPREEQYNSTYRVVSVLTVLHQDWLNGKEYKCKVSNKALPASIEKTISKAKGQPREPQVCTLPPSREEMTKNQVSLSCAVKGFYPSDIAVEWESNGQPENNYKTTPPVLDSDGSFFLVSKLTVDKSRWQQGNVFSCSVMHEALHNRFTQKSLSLSPGK
chain 3: DIQLTQSPSTLSASVGDRVTITCRASESLDNYGIRFLTWFQQKPGKAPKLLMYAASNQGSGVPSRFSGSGSGTEFTLTISSLQPDDFATYYCQQTKEVPWSFGQGTKVEVKRTVAAPSVFIFPPSDEQLKSGTASVVCLLNNFYPREAKVQWKVDNALQSGNSQESVTEQDSKDSTYSLSSTLTLSKADYEKHKVYACEVTHQGLSSPVTKSFNRGEC
B5: in the assay with recombinant CD3 proteins [5], the Kd is 54.2 nM, the koff was 0.0149 s⁻¹ and the kon was 276000 M⁻¹ s⁻¹.
